Test results published in the supplement of paper PMC9170038.

System: K4 kissing-loop RNA reporter
Assay: apparent KD of K4 kissing-loop reporter; higher = weaker reporter binding
Conditions: Eterna round: R107
Procedure: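 RNA-MaP round R107: designed RNA switches with theophylline, tryptophan, arginine or FMN aptamers are transcribed on-chip within common flanks. They are titrated with a labelled K4 kissing-loop RNA reporter in RNA-MaP buffer (100 mM Tris pH 7.5, 80 mM KCl, 4 mM MgCl2), without ligand or with the indicated ligand. Median apparent KD per design.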

[1] = input ligand: theophylline 20 uM
[2] = input ligand: tryptophan 2.4 mM
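Note: bound reporter read as fluorescence of individual clusters on recovered sequencing chips by microscopy, with normalized cluster intensities fitted with a binding model.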

UAUCUAUGCUCGGCCGCCACUAGGACCGGGAUCUCUCUAGUGAUGUUAGUCUGAUCGGCCGCCACUAGGACCGGGAGUGUAGAUA [KL-SSTryp-B15 #DoubleAptamer]
apparent KD of K4 kissing-loop reporter (input ligand: FMN 200 uM): 101 nM
apparent KD of K4 kissing-loop reporter (input ligand: arginine 13.2 mM): 88.7 nM
apparent KD of K4 kissing-loop reporter (input ligand: none): 91.2 nM
apparent KD of K4 kissing-loop reporter [1]: 104 nM
apparent KD of K4 kissing-loop reporter [2]: 80.3 nM

UAUCUAUGCUCGGCCGCCACUAGGACCGGGUAGUCUCUAGUGAUGUUAGUCUCUACGGCCGCCACUAGGACCGGGAGUGUAGAUA [KL-SSTryp-B16 #DoubleAptamer]
apparent KD of K4 kissing-loop reporter (input ligand: FMN 200 uM): 286 nM
apparent KD of K4 kissing-loop reporter (input ligand: arginine 13.2 mM): 235 nM
apparent KD of K4 kissing-loop reporter (input ligand: none): 224 nM
apparent KD of K4 kissing-loop reporter [1]: 225 nM
apparent KD of K4 kissing-loop reporter [2]: 82.5 nM

UAUGAAGGUGGAGGAUAUUGAUUGAAUCUUGGUCUGGAGUGAUGUUCCGGGAAGCCUUGGAUUCAUCGAGAAGGCCAAGGAUAGU [Extra 1]
apparent KD of K4 kissing-loop reporter (input ligand: FMN 200 uM): 123 nM
apparent KD of K4 kissing-loop reporter (input ligand: arginine 13.2 mM): 269 nM
apparent KD of K4 kissing-loop reporter (input ligand: none): 307 nM
apparent KD of K4 kissing-loop reporter [1]: 263 nM
apparent KD of K4 kissing-loop reporter [2]: 198 nM

UAUUAAUUGUCAGGAUAUCGUAAUCGAGUGAUGUUCGAAUAUCGACGAUAGUCGAUAUUAUUUAUACGAGAAGGGACAUUAUUUA [JR_SSFMNB_Sub004]
apparent KD of K4 kissing-loop reporter (input ligand: FMN 200 uM): 366 nM
apparent KD of K4 kissing-loop reporter (input ligand: arginine 13.2 mM): 298 nM
apparent KD of K4 kissing-loop reporter (input ligand: none): 417 nM
apparent KD of K4 kissing-loop reporter [1]: 321 nM
apparent KD of K4 kissing-loop reporter [2]: 332 nM

UCACCGCCUAGUGAUGUUACGCGACUCAGAAAGGAUAUAAUCAAUCUUAGAAGGUUCACACCGUAUGGAUAUUAUCUAUCUCGUU [theeternabot_exclusion_KL_FMN_A_39]
apparent KD of K4 kissing-loop reporter (input ligand: FMN 200 uM): 456 nM
apparent KD of K4 kissing-loop reporter (input ligand: arginine 13.2 mM): 284 nM
apparent KD of K4 kissing-loop reporter (input ligand: none): 427 nM
apparent KD of K4 kissing-loop reporter [1]: 437 nM
apparent KD of K4 kissing-loop reporter [2]: 398 nM

UCCUAGGCUCGAAAGAGCCUAGGAUAUACUCAGGAUAUCCGGAAACGGAGAAGGGAGUAACUAGUGAUGUUAGGGAUUCCCUAUU
apparent KD of K4 kissing-loop reporter (input ligand: FMN 200 uM): 260 nM
apparent KD of K4 kissing-loop reporter (input ligand: arginine 13.2 mM): 96 nM
apparent KD of K4 kissing-loop reporter (input ligand: none): 109 nM
apparent KD of K4 kissing-loop reporter [1]: 98.7 nM
apparent KD of K4 kissing-loop reporter [2]: 96.5 nM

UCCUCGAAUCGACCUCGAAAGAGGAUGGAUACCAGAGAAGAAAUUCUCCCUUGGCAGCCAGUGAUGUUGGAACGAGGUAAAUAAA [#SwitchBubble 20 #K4Late]
apparent KD of K4 kissing-loop reporter (input ligand: FMN 200 uM): 508 nM
apparent KD of K4 kissing-loop reporter (input ligand: arginine 13.2 mM): 412 nM
apparent KD of K4 kissing-loop reporter (input ligand: none): 517 nM
apparent KD of K4 kissing-loop reporter [1]: 327 nM
apparent KD of K4 kissing-loop reporter [2]: 424 nM

UCCUGCAAUCAACCACGAAAGUGGUUCGAUACCAGAGUCGAAAGACUCCCUUGGCAGCGAGUGAUGUUCGAGCAGGUAAAAUAAA
apparent KD of K4 kissing-loop reporter (input ligand: FMN 200 uM): 862 nM
apparent KD of K4 kissing-loop reporter (input ligand: arginine 13.2 mM): 642 nM
apparent KD of K4 kissing-loop reporter (input ligand: none): 754 nM
apparent KD of K4 kissing-loop reporter [1]: 646 nM
apparent KD of K4 kissing-loop reporter [2]: 602 nM

UCCUGCAAUCUGCCACGAAAGUGGAUUGAUACCAGAGUCGAAAGACUCCCUUGGCAGCGAGUGAUGUUCGAAGCAGGUAAAUAAA
apparent KD of K4 kissing-loop reporter (input ligand: FMN 200 uM): 99.4 nM
apparent KD of K4 kissing-loop reporter (input ligand: arginine 13.2 mM): 149 nM
apparent KD of K4 kissing-loop reporter (input ligand: none): 124 nM
apparent KD of K4 kissing-loop reporter [1]: 160 nM
apparent KD of K4 kissing-loop reporter [2]: 91.7 nM

UCGAGUGAUGUUCGAUUUCAGUGAAGAGAUACCAGCCGCAGUGUAGGCCCUUGGCAGCUCGGCUAUUAUGACAUAUGCAGUUUAG [theeternabot_sameState_KL_Theo_A_29]
apparent KD of K4 kissing-loop reporter (input ligand: FMN 200 uM): 125 nM
apparent KD of K4 kissing-loop reporter (input ligand: arginine 13.2 mM): 121 nM
apparent KD of K4 kissing-loop reporter (input ligand: none): 119 nM
apparent KD of K4 kissing-loop reporter [1]: 122 nM
apparent KD of K4 kissing-loop reporter [2]: 80 nM

UCGCAAGAAUCACUGUGGAGGACCUUGGCCAAGGAUAUCAAAGGAUUGAGAAGGUGGCGCCAAGUGAUGUUUGGAUGCCGGGCAG [theeternabot_exclusion_KL_FMN_A_36]
apparent KD of K4 kissing-loop reporter (input ligand: FMN 200 uM): 149 nM
apparent KD of K4 kissing-loop reporter (input ligand: arginine 13.2 mM): 286 nM
apparent KD of K4 kissing-loop reporter (input ligand: none): 293 nM
apparent KD of K4 kissing-loop reporter [1]: 183 nM
apparent KD of K4 kissing-loop reporter [2]: 256 nM

UCGCAUUAACCGGAUACCAGCUUAGUGGGAUCUUCAAUCCGACAGAAAGUGAUGUUUUCUAGCCCUUGGCAGCCGAGAUUAUCAC [theeternabot_sameState_KL_Theo_B_50]
apparent KD of K4 kissing-loop reporter (input ligand: FMN 200 uM): 231 nM
apparent KD of K4 kissing-loop reporter (input ligand: arginine 13.2 mM): 333 nM
apparent KD of K4 kissing-loop reporter (input ligand: none): 331 nM
apparent KD of K4 kissing-loop reporter [1]: 412 nM
apparent KD of K4 kissing-loop reporter [2]: 348 nM

UCGCCCGAUGGAGAUACCAGCAGUUGUGCAGUGAUGUUGCACAAGUACUCGCUCCAUUGCUGCCCUUGGCAGCUCCCGGCAAACA [Enraed]
apparent KD of K4 kissing-loop reporter (input ligand: FMN 200 uM): 93.3 nM
apparent KD of K4 kissing-loop reporter (input ligand: arginine 13.2 mM): 85 nM
apparent KD of K4 kissing-loop reporter (input ligand: none): 87.6 nM
apparent KD of K4 kissing-loop reporter [1]: 82.8 nM
apparent KD of K4 kissing-loop reporter [2]: 89.3 nM

UCGCCGCUCACGGCCGCCACUAAGCCCAAGACCAGAGAGUGAUGUUCUAUCCACGUUUCAAUUUUUAGGACCGGGUGAAAGGCGA [theeternabot_sameState_KL_Trp_B_14]
apparent KD of K4 kissing-loop reporter (input ligand: FMN 200 uM): 779 nM
apparent KD of K4 kissing-loop reporter (input ligand: arginine 13.2 mM): 411 nM
apparent KD of K4 kissing-loop reporter (input ligand: none): 729 nM
apparent KD of K4 kissing-loop reporter [1]: 625 nM
apparent KD of K4 kissing-loop reporter [2]: 618 nM

UCGGCGGAGUGAUGUUCCUAUGUCCAAGAUACCAGUCUAUGAACGGACCCUUGGCAGCUUCCAUUAGGUUACUAUUUAGACUCAU [theeternabot_exclusion_KL_Theo_A_10]
apparent KD of K4 kissing-loop reporter (input ligand: FMN 200 uM): 190 nM
apparent KD of K4 kissing-loop reporter (input ligand: arginine 13.2 mM): 227 nM
apparent KD of K4 kissing-loop reporter (input ligand: none): 215 nM
apparent KD of K4 kissing-loop reporter [1]: 248 nM
apparent KD of K4 kissing-loop reporter [2]: 166 nM

UCUCCAAAGUCGGCCGCCACUCCGGGCCCUAUAAAUGGGCGCAGUGAUGUUGCGGCUAGGCCUCUGAGGACCGGGACUUUGUAGA [Estiorquin]
apparent KD of K4 kissing-loop reporter (input ligand: FMN 200 uM): 75.5 nM
apparent KD of K4 kissing-loop reporter (input ligand: arginine 13.2 mM): 55.7 nM
apparent KD of K4 kissing-loop reporter (input ligand: none): 31.3 nM
apparent KD of K4 kissing-loop reporter [1]: 129 nM
apparent KD of K4 kissing-loop reporter [2]: 164 nM

UCUGAAUUAUCUGAUACCAGACUUUUUGUAUUUAUUAAAACUAGUGAUGUUAGUUUAUCUGUCCCUUGGCAGCAGUUUCUACAGA [JR_Nu_ExcTheophyB_Sub022]
apparent KD of K4 kissing-loop reporter (input ligand: FMN 200 uM): 79.9 nM
apparent KD of K4 kissing-loop reporter (input ligand: arginine 13.2 mM): 95.4 nM
apparent KD of K4 kissing-loop reporter (input ligand: none): 83.8 nM
apparent KD of K4 kissing-loop reporter [1]: 90.8 nM
apparent KD of K4 kissing-loop reporter [2]: 72.5 nM

UCUGGAGUAUAUGAUACCAGCAGUGAGAGACAGGAAGUAUAGUGAUGUUAUAUGAGAGAAUGCCCUUGGCAGCGUGUGCGGUGGC [SSTheophylB.Q]
apparent KD of K4 kissing-loop reporter (input ligand: FMN 200 uM): 118 nM
apparent KD of K4 kissing-loop reporter (input ligand: arginine 13.2 mM): 77.8 nM
apparent KD of K4 kissing-loop reporter (input ligand: none): 61.6 nM
apparent KD of K4 kissing-loop reporter [1]: 81.4 nM
apparent KD of K4 kissing-loop reporter [2]: 58.3 nM

UGACAUUGCUCAGAUACCAGACCUGAGGAACACCCAGGUGCCAAAACGUACUAAAUAAAGGUCCCUUGGCAGCUGAGCAAUGUCU [TheoBX 13]
apparent KD of K4 kissing-loop reporter (input ligand: FMN 200 uM): 45.7 nM
apparent KD of K4 kissing-loop reporter (input ligand: arginine 13.2 mM): 35.1 nM
apparent KD of K4 kissing-loop reporter (input ligand: none): 35.4 nM
apparent KD of K4 kissing-loop reporter [1]: 77.6 nM
apparent KD of K4 kissing-loop reporter [2]: 59.7 nM

UGACUACAAGGAAAAUAAUCCUAGUGAUGUUAGGAUAUGCUGAUAAGCAGAAGGAACUGAGAUCGAAAGAUCUCAAAUGUAGUCU [FmnAX 27 Mat Inspired #SwitchBubble #StaticStem #K4Early]
apparent KD of K4 kissing-loop reporter (input ligand: FMN 200 uM): 121 nM
apparent KD of K4 kissing-loop reporter (input ligand: arginine 13.2 mM): 92 nM
apparent KD of K4 kissing-loop reporter (input ligand: none): 87.2 nM
apparent KD of K4 kissing-loop reporter [1]: 102 nM
apparent KD of K4 kissing-loop reporter [2]: 93.5 nM

UGACUACAUAAGGAUUAAUCCUAGUGAUGUUAGGAUAUGCUGAUAAGCAGAAGGAACGGAGAUCGAAGGAUCUCAUAUGUAGUCU [whbob_Ex_FMNA__2th195]
apparent KD of K4 kissing-loop reporter (input ligand: FMN 200 uM): 457 nM
apparent KD of K4 kissing-loop reporter (input ligand: arginine 13.2 mM): 135 nM
apparent KD of K4 kissing-loop reporter (input ligand: none): 164 nM
apparent KD of K4 kissing-loop reporter [1]: 138 nM
apparent KD of K4 kissing-loop reporter [2]: 164 nM
